B1: Kv2.1 (wild-type voltage-dependent delayed-rectifier K+ channel, expressed in CHO cells) (protein)
chain: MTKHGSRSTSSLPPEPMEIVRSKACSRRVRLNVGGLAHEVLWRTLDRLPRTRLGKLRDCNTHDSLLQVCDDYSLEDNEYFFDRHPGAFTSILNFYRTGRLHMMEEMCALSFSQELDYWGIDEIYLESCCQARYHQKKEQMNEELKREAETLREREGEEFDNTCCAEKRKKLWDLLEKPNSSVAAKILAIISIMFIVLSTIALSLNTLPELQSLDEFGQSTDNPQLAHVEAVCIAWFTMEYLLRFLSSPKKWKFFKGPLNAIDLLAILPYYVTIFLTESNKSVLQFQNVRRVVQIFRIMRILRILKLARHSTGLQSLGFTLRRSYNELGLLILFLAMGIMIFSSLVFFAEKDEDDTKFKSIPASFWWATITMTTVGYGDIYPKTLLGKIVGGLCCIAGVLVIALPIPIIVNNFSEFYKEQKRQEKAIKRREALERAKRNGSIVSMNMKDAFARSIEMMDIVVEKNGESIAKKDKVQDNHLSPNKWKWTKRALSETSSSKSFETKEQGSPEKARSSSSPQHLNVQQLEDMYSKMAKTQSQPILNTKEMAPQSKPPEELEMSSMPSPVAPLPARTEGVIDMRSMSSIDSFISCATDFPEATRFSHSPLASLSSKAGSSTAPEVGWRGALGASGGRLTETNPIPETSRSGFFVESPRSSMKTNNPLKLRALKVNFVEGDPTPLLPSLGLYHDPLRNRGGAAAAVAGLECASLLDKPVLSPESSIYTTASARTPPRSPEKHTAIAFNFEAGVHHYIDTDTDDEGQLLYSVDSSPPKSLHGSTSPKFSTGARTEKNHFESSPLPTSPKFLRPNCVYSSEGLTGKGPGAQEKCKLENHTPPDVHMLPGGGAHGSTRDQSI

Assays:
[1] = molecular target: syntaxin (SNARE protein; expressed from a plasmid in CHO cells for co-immunoprecipitation); experiment: co-immunoprecipitation with anti-syntaxin from CHO cells expressing syntaxin and Kv2.1, no C1a segment; mean±SEM, n=3
Chain of syntaxin (SNARE protein; expressed from a plasmid in CHO cells for co-immunoprecipitation) (Q16623 whole entry): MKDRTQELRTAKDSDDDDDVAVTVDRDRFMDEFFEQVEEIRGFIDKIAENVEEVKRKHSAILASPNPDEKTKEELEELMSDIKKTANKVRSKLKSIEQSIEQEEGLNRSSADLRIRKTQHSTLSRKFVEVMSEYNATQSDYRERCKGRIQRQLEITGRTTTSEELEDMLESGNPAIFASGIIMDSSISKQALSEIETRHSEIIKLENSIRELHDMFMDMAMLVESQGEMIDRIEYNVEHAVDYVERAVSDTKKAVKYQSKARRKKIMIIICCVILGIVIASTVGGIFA

[2] = molecular target: syntaxin (SNARE protein; expressed from a plasmid in CHO cells for co-immunoprecipitation); experiment: co-immunoprecipitation with anti-syntaxin from CHO cells expressing syntaxin and Kv2.1 with C1a441-472 co-expressed as competitor; the ratio is Kv2.1 pulled down with syntaxin; mean±SEM, n=3

Binder | ratio of Kv2.1 to syntaxin immunoblots [1] | ratio of Kv2.1 to syntaxin immunoblots [2]
B1 | 0.24 | 
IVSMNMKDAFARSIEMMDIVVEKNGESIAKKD [C1a441-472 (overlapping middle segment of C1a)] |  | 0.25

Reference: US20170174740A1
